Experimental data reported in PMC6422423, “Constitutively active BRS3 is a genuinely orphan GPCR in placental mammals” (PLoS Biology, 2019).
Values belong to the molecule of their own block, whether it stands above or below them.

What was measured:
human BRS3 (hBRS3) = test: Luciferase reporter, constitutive activity (WT, mutants, truncated; with/without inhibitor); assay type: cell-based; conditions: for luciferase, CRE / luciferase, NFAT / luciferase, SRE / luciferase, SRF: Blank = 1; for CRE luciferase reporter activity relative to Blank (Blank = 1) / NFAT luciferase reporter activity relative to Blank (Blank = 1) / SRF luciferase reporter activity relative to Blank (Blank = 1): constitutive
Procedure: (§1) To detect constitutive activity of BRS3, HEK293 cells were seeded in 24-well plates and cotransfected with the CRE/NFAT-RE/SRF-RE/SRE luciferase reporter plasmids (50 ng), the BRS3 from different species, or BRS3 mutants with different doses (10 ng/50 ng/150 ng); after 24 h, cells were further incubated in serum-free media for another 12 h before luciferase assay. As for peptide supplementation treatment, HEK293 cells were cotransfected with the CRE/NFAT-RE/SRF-RE/SRE luciferase reporter plasmids (50 ng) and various genes (300 ng) of the bombesin receptor family. […] Luciferase activities were determined using luciferase assay kits (Beyotime, Shanghai, China) and normalized to β-galactosidase activity. All experiments were performed at least three times in triplicates. HEK293 cells transfected with pcDNA were used as a blank control in all luciferase experiments, and the fold was calculated compared to blank control.

mouse BRS3 (mBRS3) = test: as above; assay type: cell-based; design: key to constitutive luciferase activity: fold over pcDNA-transfected blank control (blank = 1); conditions: CRE, no ligand
Procedure: as §1

[1] = full-length hBRS3 and truncated N-hBRS3, replicate 1
[2] = full-length hBRS3 and truncated N-hBRS3, replicate 2
[3] = full-length hBRS3 and truncated N-hBRS3, third line, unlabelled, equals mean of the two replicates
[4] = hBRS3 WT and mutant 3, replicate 1
[5] = hBRS3 WT and mutant 3, replicate 2
[6] = hBRS3 WT and mutant 3, third line, unlabelled, equals mean of the two replicates

luciferase, CRE (human BRS3 (hBRS3); value 1 of 3): 4.2545
luciferase, NFAT (human BRS3 (hBRS3); value 1 of 3): 6.3808
luciferase, SRE (human BRS3 (hBRS3); value 1 of 3): 1.2780
luciferase, SRF (human BRS3 (hBRS3); value 1 of 3): 4.0202
luciferase, CRE (human BRS3 (hBRS3); value 2 of 3): 3.9246
luciferase, NFAT (human BRS3 (hBRS3); value 2 of 3): 6.2351
luciferase, SRE (human BRS3 (hBRS3); value 2 of 3): 1.0242
luciferase, SRF (human BRS3 (hBRS3); value 2 of 3): 3.9201
luciferase, CRE (human BRS3 (hBRS3); value 3 of 3): 4.0896
luciferase, NFAT (human BRS3 (hBRS3); value 3 of 3): 6.5264
luciferase, SRE (human BRS3 (hBRS3); value 3 of 3): 1.5319
luciferase, SRF (human BRS3 (hBRS3); value 3 of 3): 4.1204
B1: human (protein, UniProt P32247 1-399, looked up)
Bombesin receptor subtype-3: MAQRQPHSPNQTLISITNDTESSSSVVSNDNTNKGWSGDNSPGIEALCAIYITYAVIISVGILGNAILIKVFFKTKSMQTVPNIFITSLAFGDLLLLLTCVPVDATHYLAEGWLFGRIGCKVLSFIRLTSVGVSVFTLTILSADRYKAVVKPLERQPSNAILKTCVKAGCVWIVSMIFALPEAIFSNVYTFRDPNKNMTFESCTSYPVSKKLLQEIHSLLCFLVFYIIPLSIISVYYSLIARTLYKSTLNIPTEEQSHARKQIESRKRIARTVLVLVALFALCWLPNHLLYLYHSFTSQTYVDPSAMHFIFTIFSRVLAFSNSCVNPFALYWLSKSFQKHFKAQLFCCKAERPEPPVADTSLTTLAVMGTVPGTGSIQMSEISVTSFTGCSVKQAEDRF

CRE luciferase reporter activity relative to Blank (Blank = 1) (human BRS3 (hBRS3); [1]): 3.5016
CRE luciferase reporter activity relative to Blank (Blank = 1) (human BRS3 (hBRS3); [2]): 4.7486
CRE luciferase reporter activity relative to Blank (Blank = 1) (human BRS3 (hBRS3); [3]): 4.1251
NFAT luciferase reporter activity relative to Blank (Blank = 1) (human BRS3 (hBRS3); [1]): 5.5943
NFAT luciferase reporter activity relative to Blank (Blank = 1) (human BRS3 (hBRS3); [2]): 5.6987
NFAT luciferase reporter activity relative to Blank (Blank = 1) (human BRS3 (hBRS3); [3]): 5.6465
SRF luciferase reporter activity relative to Blank (Blank = 1) (human BRS3 (hBRS3); [1]): 3.202
SRF luciferase reporter activity relative to Blank (Blank = 1) (human BRS3 (hBRS3); [2]): 3.9147
SRF luciferase reporter activity relative to Blank (Blank = 1) (human BRS3 (hBRS3); [3]): 3.5584
B2: hBRS3 (protein)
chain: MAQRQPHSPNQTLISITNDTESSSSVVSNDNTNKGWSGDNSPGIEALCAIYITYAVIISVGILGNAILIKVFFKTKSMQTVPNIFITSLAFGDLLLLLTCVPVDATHYLAEGWLFGRIGCKVLSFIRLTSVGVSVFTLTILSADRYKAVVKPLERQPSNAILKTCVKAGCVWIVSMIFALPEAIFSNVYTFRDPNKNMTFESCTSYPVSKKLLQEIHSLLCFLVFYIIPLSIISVYYSLIARTLYKSTLNIPTEEQSHARKQIESRKRIARTVLVLVALFALCWLPNHLLYLYHSFTSQTYVDPSAMHFIFTIFSRVLAFSNSCVNPFALYWLSKSFQKHFKAQLFCCKAERPEPPVADTSLTTLAVMGTVPGTGSIQMSEISVTSFTGCSVKQAEDRF
modifications: left off: V5 (from the vector pcDNA3.1-V5-His), end not stated, state not stated | His tag (from the vector pcDNA3.1-V5-His), end not stated, state not stated

CRE luciferase reporter activity relative to Blank (Blank = 1) (human BRS3 (hBRS3); [4]): 4.2545
CRE luciferase reporter activity relative to Blank (Blank = 1) (human BRS3 (hBRS3); [5]): 3.9246
CRE luciferase reporter activity relative to Blank (Blank = 1) (human BRS3 (hBRS3); [6]): 4.0896
NFAT luciferase reporter activity relative to Blank (Blank = 1) (human BRS3 (hBRS3); [4]): 6.5264
NFAT luciferase reporter activity relative to Blank (Blank = 1) (human BRS3 (hBRS3); [5]): 6.2351
NFAT luciferase reporter activity relative to Blank (Blank = 1) (human BRS3 (hBRS3); [6]): 6.3808
SRF luciferase reporter activity relative to Blank (Blank = 1) (human BRS3 (hBRS3); [4]): 4.1204
SRF luciferase reporter activity relative to Blank (Blank = 1) (human BRS3 (hBRS3); [5]): 3.9201
SRF luciferase reporter activity relative to Blank (Blank = 1) (human BRS3 (hBRS3); [6]): 4.0202
B3: hBRS3-WT (protein, UniProt P32247 1-399, looked up)
Bombesin receptor subtype-3: MAQRQPHSPNQTLISITNDTESSSSVVSNDNTNKGWSGDNSPGIEALCAIYITYAVIISVGILGNAILIKVFFKTKSMQTVPNIFITSLAFGDLLLLLTCVPVDATHYLAEGWLFGRIGCKVLSFIRLTSVGVSVFTLTILSADRYKAVVKPLERQPSNAILKTCVKAGCVWIVSMIFALPEAIFSNVYTFRDPNKNMTFESCTSYPVSKKLLQEIHSLLCFLVFYIIPLSIISVYYSLIARTLYKSTLNIPTEEQSHARKQIESRKRIARTVLVLVALFALCWLPNHLLYLYHSFTSQTYVDPSAMHFIFTIFSRVLAFSNSCVNPFALYWLSKSFQKHFKAQLFCCKAERPEPPVADTSLTTLAVMGTVPGTGSIQMSEISVTSFTGCSVKQAEDRF

constitutive luciferase activity (mouse BRS3 (mBRS3); mean): 17.158
constitutive luciferase activity (mouse BRS3 (mBRS3); replicate 1): 17.4198
constitutive luciferase activity (mouse BRS3 (mBRS3); replicate 2): 16.8962
B4: mBRS3-P372A (protein, UniProt O54798 1-399, looked up, variant P372A)
Bombesin receptor subtype-3: MSQRQSQSPNQTLISITNDTETSSSVVSNDTTHKGWTGDNSPGIEALCAIYITYAGIISVGILGNAILIKVFFKTKSMQTVPNIFITSLAFGDLLLLLTCVPVDATHYLAEGWLFGKVGCKVLSFIRLTSVGVSVFTLTILSADRYKAVVKPLERQPPNAILKTCAKAGGIWIVSMIFALPEAIFSNVYTFQDPNRNVTFESCNSYPISERLLQEIHSLLCFLVFYIIPLSIISVYYSLIARTLYKSTLNIPTEEQSHARKQIESRKRIAKTVLVLVALFALCWLPNHLLYLYHSFTYESYANHSDVPFVIIIFSRVLAFSNSCVNPFALYWLSKTFQQHFKAQLCCLKAEQPEPPLGDIPLNNLTVMGRVAATGSAHVSEISVTLFSGSSAKKGEDKV
